Test results reported in patent US20210246199A1 (MIT, published 2021).
Like-named read-outs stand apart in the source and are kept apart here.

Key:
Assay in all cases: scFv on yeast, soluble CXCL-SA; flow cytometry
[1] = target: T1, ^NmCXCL5-SA^C (LIX/mCXCL5 48-118 fused to mouse serum albumin) (mouse, UniProt P50228 48-118; P07724 25-608)
T1 construct: soluble form
Protocol: (§1) In brief, DNA plasmids encoding single protein binder clones were transformed into genetically modified Saccharomyces cerevisiae yeast cells (EBY100 strain) using Frozen-EZ Yeast Transformation II Kit (Zymo Research) and plated on selective SD-CAA solid agar media. Individual colonies were inoculated in 5 mL SD-SCAA cultures, grown to mid-log phase (0D600=2-5) in SD-CAA media at 30° C. with shacking (250 rpm). Cells were induced in galactose-containing SG-CAA media for 20 hours at 20° C. with shacking (250 rpm) as previously described (Angelini, A. et al. Protein Engineering and Selection Using Yeast Surface Display. Methods Mol Biol 1319, 3-36 (2015)). The binding assays were conducted in 96-well plates (Corning) containing 1×10⁴ induced cells per well. […] Yeast cells displaying protein binders were incubated with varying concentration of soluble CXC chemokine fusions (^NCXCL-SA^S) bearing the His6 tag and the primary chicken anti-c-myc epitope tag (1:1000) antibody (Gallus Immunotech) overnight at 4° C. with shaking (150 rpm). […] After primary incubation, cells were pelleted (2500× g for 5 min at 4° C.) and washed twice with 200 μL ice-cold PBSA buffer. Secondary labeling was performed with goat anti-chicken and mouse anti-His6 epitope tag antibodies conjugated to Alexa Fluor dyes at recommended dilutions.

[2] = target: T2, ^NhCXCL2-SA^C (Groβ/hCXCL2 35-107 fused to mouse serum albumin) (human; mouse, UniProt P19875 35-107; P07724 25-608)
T2 construct: soluble form
Protocol: as §1

[3] = target: T3, ^NhCXCL8-SA^C (IL-8/hCXCL8 28-99 fused to mouse serum albumin) (human; mouse, UniProt P10145 28-99; P07724 25-608)
T3 construct: soluble form
Protocol: as §1

[4] = target: T4, ^NhCXCL3-SA^C (Groγ/hCXCL3 35-107 fused to mouse serum albumin) (human; mouse, UniProt P19876 35-107; P07724 25-608)
T4 construct: soluble form
Protocol: as §1

[5] = target: T5, ^NmCXCL1-SA^C (KC/mCXCL1 25-96 fused to mouse serum albumin) (mouse, UniProt P12850 25-96; P07724 25-608)
T5 construct: soluble form
Protocol: as §1

[6] = target: T6, ^NmCXCL3-SA^C (DCIP-1/mCXCL3 28-100 fused to mouse serum albumin) (mouse, UniProt Q6W5C0 28-100; P07724 25-608)
T6 construct: soluble form
Protocol: as §1

[7] = target: T7, ^NmCXCL10-SA^C (Ip-10/mCXCL10 22-98 fused to mouse serum albumin) (mouse, UniProt P17515 22-98; P07724 25-608)
T7 construct: soluble form
Protocol: as §1

[8] = target: T8, ^NhCXCL6-SA^C (GCP-2/hCXCL6 43-114 fused to mouse serum albumin) (human; mouse, UniProt P80162 43-114; P07724 25-608)
T8 construct: soluble form
Protocol: as §1

[9] = target: T9, ^NhCXCL1-SA^C (Groα/hCXCL1 35-107 fused to mouse serum albumin) (human; mouse, UniProt P09341 35-107; P07724 25-608)
T9 construct: soluble form; also called Groa
Protocol: as §1

[10] = target: T10, ^NhCXCL5-SA^C (ENA-78/hCXCL5 44-114 fused to mouse serum albumin) (human; mouse, UniProt P42830 44-114; P07724 25-608)
T10 construct: soluble form
Protocol: as §1

[11] = target: T11, ^NhCXCL4-SA^C (PF-4/hCXCL4 32-101 fused to mouse serum albumin) (human; mouse, UniProt P02776 32-101; P07724 25-608)
T11 construct: soluble form
Protocol: as §1

[12] = target: T12, ^NmCXCL2-SA^C (MIP-2/mCXCL2 28-100 fused to mouse serum albumin) (mouse, UniProt P10889 28-100; P07724 25-608)
T12 construct: soluble form
Protocol: as §1

[13] = target: T1, ^NmCXCL5-SA^C (LIX/mCXCL5 48-118 fused …); remark: listed apart in the source
Protocol: as §1

[14] = target: T3, ^NhCXCL8-SA^C (IL-8/hCXCL8 28-99 fused …); remark: listed apart in the source
Protocol: as §1

[15] = target: T5, ^NmCXCL1-SA^C (KC/mCXCL1 25-96 fused to …); remark: listed apart in the source
Protocol: as §1

[16] = target: T9, ^NhCXCL1-SA^C (Groα/hCXCL1 35-107 fused …); remark: listed apart in the source
Protocol: as §1

[17] = target: T10, ^NhCXCL5-SA^C (ENA-78/hCXCL5 44-114 …); remark: listed apart in the source
Protocol: as §1

[18] = target: T12, ^NmCXCL2-SA^C (MIP-2/mCXCL2 28-100 …); remark: listed apart in the source
Protocol: as §1

[19] = target: these chemokines (the six ELR+ CXC chemokines recognized by CK138)
[20] = target: T13, ^NmCXCL4-SA^C (Pf-4/mCXCL4 30-105 fused to mouse serum albumin) (mouse, UniProt Q9Z126 30-105; P07724 25-608)
T13 construct: soluble form
Protocol: as §1

[21] = target: T14, ^NhCXCL10-SA^C (IP-10/hCXCL10 22-98 fused to mouse serum albumin) (human; mouse, UniProt P02778 22-98; P07724 25-608)
T14 construct: soluble form
Protocol: as §1

[22] = target: T15, ^NhCXCL11-SA^C (I-TAC/hCXCL11 22-94 fused to mouse serum albumin) (human; mouse, UniProt O14625 22-94; P07724 25-608)
T15 construct: soluble form
Protocol: as §1

[23] = target: T16, ^NmCXCL11-SA^C (I-Tac/mCXCL11 22-100 fused to mouse serum albumin) (mouse, UniProt Q9JHH5 22-100; P07724 25-608)
T16 construct: soluble form
Protocol: as §1

[24] = target: T17, ^NmCXCL7-SA^C (Nap-2/mCXCL7 48-113 fused to mouse serum albumin) (mouse)
T17 construct: soluble form
T17 chain: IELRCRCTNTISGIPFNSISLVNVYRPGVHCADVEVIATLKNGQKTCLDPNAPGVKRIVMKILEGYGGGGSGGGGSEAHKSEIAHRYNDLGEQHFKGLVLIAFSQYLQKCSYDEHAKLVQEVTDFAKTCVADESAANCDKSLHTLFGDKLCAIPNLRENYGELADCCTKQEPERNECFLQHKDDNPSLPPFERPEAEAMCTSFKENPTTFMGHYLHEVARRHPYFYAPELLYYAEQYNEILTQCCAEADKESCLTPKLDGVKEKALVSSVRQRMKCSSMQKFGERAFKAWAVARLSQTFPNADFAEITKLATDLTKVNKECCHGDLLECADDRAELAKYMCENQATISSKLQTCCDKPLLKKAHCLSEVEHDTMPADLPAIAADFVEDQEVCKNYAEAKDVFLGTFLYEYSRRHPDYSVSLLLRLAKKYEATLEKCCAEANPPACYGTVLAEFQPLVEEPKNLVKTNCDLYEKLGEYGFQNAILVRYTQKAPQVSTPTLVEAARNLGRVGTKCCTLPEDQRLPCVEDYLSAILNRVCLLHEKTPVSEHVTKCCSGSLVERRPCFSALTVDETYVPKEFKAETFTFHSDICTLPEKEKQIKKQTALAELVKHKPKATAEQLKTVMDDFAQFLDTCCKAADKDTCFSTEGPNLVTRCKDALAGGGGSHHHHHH
Protocol: as §1

five targets (of CK157) = target: five targets (of CK157)

B1: CK138 (scFv)
scFv: AIQMTRSPSSLSASVGDRVTITCRASQYHDGSAAWYQQKPGKAPKLLIYGASYLYSGVPSRFSGSRSGTDFTLTISSLQPEDFATYYCQQSSYSLITFGQGTKVEIKGTTAASGSSGGSSSGAEVQLVESDGGLVQPGGSLRLSCAASGFNLSYYGMHWVRQAPGKGLEWVAYIASYPGYTSYADSVKGRFTISADTSKNTAYLQMNSLRAEDTAVYYCARSGYSYSPYYSWFSAGMNYWGQGALVTVSS
notes: CK1 lineage
Q: For B1, which Kd [1] is on record?
A: 176 nM

Q: And the Kd [2]?
A: 267 nM

Q: What about the Kd [3] of the same binder?
A: 6.9 nM

Q: What about the Kd [4] of the same binder?
A: 349 nM

Q: And the Kd [5]?
A: 35.7 nM

Q: What about the Kd [6] of the same binder?
A: 10.9 nM

Q: What about the Kd [7] of the same binder?
A: 500 nM

Q: What about the Kd [8] of the same binder?
A: 153 nM

Q: And the Kd [9]?
A: 41.5 nM

Q: What about the Kd [10] of the same binder?
A: 5.8 nM

Q: And the Kd [11]?
A: 167 nM

Q: And the Kd [12]?
A: 29.1 nM

Q: What about the Kd [13] of the same binder?
A: 193 nM

Q: And the Kd [14]?
A: 7.4 nM

Q: What about the Kd [15] of the same binder?
A: 34.8 nM

Q: And the Kd [16]?
A: 61.9 nM

Q: And the Kd [17]?
A: 5.8 nM

Q: What about the Kd [18] of the same binder?
A: 36.2 nM

Q: What about the fold improvement in affinity relative to the parental CK1 [19] of the same binder?
A: 30 to 340 fold

B2: CK157 (scFv)
scFv: DIQMTQSPSSLSASVGDRVTITCRASQSYGGVAWYQQKPGKAPKLLIYSASYLYSGVPSRFSGSRSGTDFTLTISSLQPEDFATYYCQQPSHLITFGQGTEVEIKGTTAASGSSGGSSSGAEVQLVESGGGLVQPGGSLRLSCAASGSNPYYYGGTHWVRQAPGEELEWVASIGSYPGYTDYADSVKGRFTISADTSKNTAYLQMNSLRAEDTAVYYCARHYYWYDATDYWGQGTLVTVSS
notes: CK2 lineage
Q: How did the Kd [20] turn out when B2 was run?
A: 17.1 nM

Q: And the Kd [1]?
A: 96.9 nM

Q: And the Kd [2]?
A: 57.9 nM

Q: What about the Kd [4] of the same binder?
A: 53.9 nM

Q: What about the Kd [5] of the same binder?
A: 24.3 nM

Q: What about the Kd [21] of the same binder?
A: 45.5 nM

Q: What about the Kd [6] of the same binder?
A: 17.4 nM

Q: And the Kd [7]?
A: 44.4 nM

Q: What about the Kd [22] of the same binder?
A: 131 nM

Q: And the Kd [23]?
A: 124 nM

Q: What about the Kd [24] of the same binder?
A: 13.6 nM

Q: What about the Kd [8] of the same binder?
A: 46.6 nM

Q: What about the Kd [9] of the same binder?
A: 61.1 nM

Q: And the Kd [10]?
A: 26.3 nM

Q: What about the Kd [11] of the same binder?
A: 112 nM

Q: And the Kd [12]?
A: 19.9 nM

Q: What about the Kd [13] of the same binder?
A: 57.1 nM

Q: What about the Kd [15] of the same binder?
A: 20.6 nM

Q: What about the Kd [16] of the same binder?
A: 36.2 nM

Q: And the Kd [17]?
A: 16.9 nM

Q: And the Kd [18]?
A: 18.2 nM

Q: What about the fold improvement in affinity compared to the initial CK2 (five targets (of CK157)) of the same binder?
A: 20 to 55 fold

B3: CK129 (scFv)
scFv: DIQMTQSPSPLSASVGDRVTITCRASQYGGYVAWYQQKPGKAPKLLIYGASLLYSGVPSRFSGGRSGTDFTLTISSLQPEDFATYYCQRGHALITFGQGTKVEIEGTTAASGSSGGSSSGAEVQLVESGGGLVQPGGSLRLSCAASGFNISSYGSMHWVRQAPGKGLEWVASIYPYSSSTYYADSVKGRFTISADTSKNTAYLQMNSLRAEDTAVYYCARGYGPWYAYSYFALDYWGQGTLVTVSS
notes: CK4 lineage
Q: For B3, which Kd [2] is on record?
A: 13.9 nM

Q: And the Kd [4]?
A: 5.7 nM

Q: What about the Kd [5] of the same binder?
A: 1.1 nM

Q: What about the Kd [9] of the same binder?
A: 1 nM

Q: And the Kd [15]?
A: 0.93 nM

Q: What about the “fold increase in affinity (against the parental CK4 clone)” value [15] of the same binder?
A: 800 fold

Q: What about the Kd [16] of the same binder?
A: 0.79 nM

Q: And the “fold increase in affinity (against the parental CK4 clone)” value [16]?
A: 50 fold
